According to US20260193293A1, “PEPTIDES CAPABLE OF INHIBITING PROTEIN-PROTEIN INTERACTIONS AT GABAB1A SUBUNIT AND USES THEREOF” (UNIVERSITY OF COPENHAGEN, priority 2022, published 2026):
Non-standard residues stand in square brackets, D forms with d. NMeW = CN[C@@H](Cc1c[nH]c2ccccc12)C(=O)O; NMeT = CN[C@H](C(=O)O)[C@@H](C)O; NMeD = CN[C@@H](CC(=O)O)C(=O)O; NMeV = CN[C@H](C(=O)O)C(C)C; NMeS = CN[C@@H](CO)C(=O)O; NMeA = CN[C@@H](C)C(=O)O; Sar = CNCC(=O)O

Molecular target: Sushi domains (SD1/2) protein of the GABAB1a (GB1a) subunit, recombinant
Experiment: FP competition

Chain of Sushi domains (SD1/2) protein of the GABAB1a (GB1a) subunit, recombinant (Q9Z0U4 29-158): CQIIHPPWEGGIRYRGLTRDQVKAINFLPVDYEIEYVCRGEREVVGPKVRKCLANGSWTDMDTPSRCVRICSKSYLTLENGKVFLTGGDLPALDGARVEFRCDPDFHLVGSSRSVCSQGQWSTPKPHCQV

Binder	Ki [nM]
Ac-EDDSDVW[NMeW]GGADTD-NH2 (SMILES CC(=O)N[C@@H](CCC(=O)O)C(=O)N[C@@H](CC(=O)O)C(=O)N[C@@H](CC(=O)O)C(=O)N[C@@H](CO)C(=O)N[C@@H](CC(=O)O)C(=O)N[C@H](C(=O)N[C@@H](Cc1c[nH]c2ccccc12)C(=O)N(C)[C@@H](Cc1c[nH]c2ccccc12)C(=O)NCC(=O)NCC(=O)N[C@@H](C)C(=O)N[C@@H](CC(=O)O)C(=O)N[C@H](C(=O)N[C@@H](CC(=O)O)C(N)=O)[C@@H](C)O)C(C)C) [EDDSDVW(N-Me-W)GGADTD]	1380
Ac-ETEFIAWGATGDED-NH2	291
Ac-ETEFIAWAPTGDED-NH2	196
Ac-EDD[NMeS]DVWWGGADTD-NH2 (SMILES CC(=O)N[C@@H](CCC(=O)O)C(=O)N[C@@H](CC(=O)O)C(=O)N[C@@H](CC(=O)O)C(=O)N(C)[C@@H](CO)C(=O)N[C@@H](CC(=O)O)C(=O)N[C@H](C(=O)N[C@@H](Cc1c[nH]c2ccccc12)C(=O)N[C@@H](Cc1c[nH]c2ccccc12)C(=O)NCC(=O)NCC(=O)N[C@@H](C)C(=O)N[C@@H](CC(=O)O)C(=O)N[C@H](C(=O)N[C@@H](CC(=O)O)C(N)=O)[C@@H](C)O)C(C)C) [EDD(N-Me-S)…]	1670
Ac-EDDSD[NMeV]WWGGADTD-NH2 (SMILES CC(=O)N[C@@H](CCC(=O)O)C(=O)N[C@@H](CC(=O)O)C(=O)N[C@@H](CC(=O)O)C(=O)N[C@@H](CO)C(=O)N[C@@H](CC(=O)O)C(=O)N(C)[C@H](C(=O)N[C@@H](Cc1c[nH]c2ccccc12)C(=O)N[C@@H](Cc1c[nH]c2ccccc12)C(=O)NCC(=O)NCC(=O)N[C@@H](C)C(=O)N[C@@H](CC(=O)O)C(=O)N[C@H](C(=O)N[C@@H](CC(=O)O)C(N)=O)[C@@H](C)O)C(C)C) [EDDSD(N-Me-V)WWGGADTD]	12300
Ac-ED[NMeD]SDVWWGGADTD-NH2 (SMILES CC(=O)N[C@@H](CCC(=O)O)C(=O)N[C@@H](CC(=O)O)C(=O)N(C)[C@@H](CC(=O)O)C(=O)N[C@@H](CO)C(=O)N[C@@H](CC(=O)O)C(=O)N[C@H](C(=O)N[C@@H](Cc1c[nH]c2ccccc12)C(=O)N[C@@H](Cc1c[nH]c2ccccc12)C(=O)NCC(=O)NCC(=O)N[C@@H](C)C(=O)N[C@@H](CC(=O)O)C(=O)N[C@H](C(=O)N[C@@H](CC(=O)O)C(N)=O)[C@@H](C)O)C(C)C) [ED(N-Me-D)…]	671
Ac-ETAFIAWGPTGDED-NH2	49
Ac-EAEFIAWGPTGDED-NH2	34
Ac-EDDSDV[NMeW]WGGADTD-NH2 (SMILES CC(=O)N[C@@H](CCC(=O)O)C(=O)N[C@@H](CC(=O)O)C(=O)N[C@@H](CC(=O)O)C(=O)N[C@@H](CO)C(=O)N[C@@H](CC(=O)O)C(=O)N[C@H](C(=O)N(C)[C@@H](Cc1c[nH]c2ccccc12)C(=O)N[C@@H](Cc1c[nH]c2ccccc12)C(=O)NCC(=O)NCC(=O)N[C@@H](C)C(=O)N[C@@H](CC(=O)O)C(=O)N[C@H](C(=O)N[C@@H](CC(=O)O)C(N)=O)[C@@H](C)O)C(C)C) [EDDSDV(N-Me-W)WGGADTD]	85600
Ac-EDDSDVWWGGADT[NMeD]-NH2 (SMILES CC(=O)N[C@@H](CCC(=O)O)C(=O)N[C@@H](CC(=O)O)C(=O)N[C@@H](CC(=O)O)C(=O)N[C@@H](CO)C(=O)N[C@@H](CC(=O)O)C(=O)N[C@H](C(=O)N[C@@H](Cc1c[nH]c2ccccc12)C(=O)N[C@@H](Cc1c[nH]c2ccccc12)C(=O)NCC(=O)NCC(=O)N[C@@H](C)C(=O)N[C@@H](CC(=O)O)C(=O)N[C@H](C(=O)N(C)[C@@H](CC(=O)O)C(N)=O)[C@@H](C)O)C(C)C) […(N-Me-D)]	565

Continued by falling Ki, values first:

Ki [nM]	Binder
18900	Ac-EDDSDVWW[Sar]GADTD-NH2 (SMILES CC(=O)N[C@@H](CCC(=O)O)C(=O)N[C@@H](CC(=O)O)C(=O)N[C@@H](CC(=O)O)C(=O)N[C@@H](CO)C(=O)N[C@@H](CC(=O)O)C(=O)N[C@H](C(=O)N[C@@H](Cc1c[nH]c2ccccc12)C(=O)N[C@@H](Cc1c[nH]c2ccccc12)C(=O)N(C)CC(=O)NCC(=O)N[C@@H](C)C(=O)N[C@@H](CC(=O)O)C(=O)N[C@H](C(=O)N[C@@H](CC(=O)O)C(N)=O)[C@@H](C)O)C(C)C) [EDDSDVWW(N-Me-G)GADTD]
3760	Ac-EDDS[NMeD]VWWGGADTD-NH2 (SMILES CC(=O)N[C@@H](CCC(=O)O)C(=O)N[C@@H](CC(=O)O)C(=O)N[C@@H](CC(=O)O)C(=O)N[C@@H](CO)C(=O)N(C)[C@@H](CC(=O)O)C(=O)N[C@H](C(=O)N[C@@H](Cc1c[nH]c2ccccc12)C(=O)N[C@@H](Cc1c[nH]c2ccccc12)C(=O)NCC(=O)NCC(=O)N[C@@H](C)C(=O)N[C@@H](CC(=O)O)C(=O)N[C@H](C(=O)N[C@@H](CC(=O)O)C(N)=O)[C@@H](C)O)C(C)C) [EDDS(N-Me-D)…]
704	Ac-EDDSDVWWGG[NMeA]DTD-NH2 (SMILES CC(=O)N[C@@H](CCC(=O)O)C(=O)N[C@@H](CC(=O)O)C(=O)N[C@@H](CC(=O)O)C(=O)N[C@@H](CO)C(=O)N[C@@H](CC(=O)O)C(=O)N[C@H](C(=O)N[C@@H](Cc1c[nH]c2ccccc12)C(=O)N[C@@H](Cc1c[nH]c2ccccc12)C(=O)NCC(=O)NCC(=O)N(C)[C@@H](C)C(=O)N[C@@H](CC(=O)O)C(=O)N[C@H](C(=O)N[C@@H](CC(=O)O)C(N)=O)[C@@H](C)O)C(C)C) […(N-Me-A)DTD]
688	Ac-ETEAIAWGPTGDED-NH2
503	Ac-EDDSDVWWGGAD[NMeT]D-NH2 (SMILES CC(=O)N[C@@H](CCC(=O)O)C(=O)N[C@@H](CC(=O)O)C(=O)N[C@@H](CC(=O)O)C(=O)N[C@@H](CO)C(=O)N[C@@H](CC(=O)O)C(=O)N[C@H](C(=O)N[C@@H](Cc1c[nH]c2ccccc12)C(=O)N[C@@H](Cc1c[nH]c2ccccc12)C(=O)NCC(=O)NCC(=O)N[C@@H](C)C(=O)N[C@@H](CC(=O)O)C(=O)N(C)[C@H](C(=O)N[C@@H](CC(=O)O)C(N)=O)[C@@H](C)O)C(C)C) […(N-Me-T)D]
403	Ac-EDDSDVWWGGA[NMeD]TD-NH2 (SMILES CC(=O)N[C@@H](CCC(=O)O)C(=O)N[C@@H](CC(=O)O)C(=O)N[C@@H](CC(=O)O)C(=O)N[C@@H](CO)C(=O)N[C@@H](CC(=O)O)C(=O)N[C@H](C(=O)N[C@@H](Cc1c[nH]c2ccccc12)C(=O)N[C@@H](Cc1c[nH]c2ccccc12)C(=O)NCC(=O)NCC(=O)N[C@@H](C)C(=O)N(C)[C@@H](CC(=O)O)C(=O)N[C@H](C(=O)N[C@@H](CC(=O)O)C(N)=O)[C@@H](C)O)C(C)C) […(N-Me-D)TD]
53	Ac-ATEFIAWGPTGDED-NH2
